T1: full length rat GHR (L43R) on BAF3 cells (clone 2E2-2B12-F4) (rat) (UniProt P16310)
T1 sequence (looked up): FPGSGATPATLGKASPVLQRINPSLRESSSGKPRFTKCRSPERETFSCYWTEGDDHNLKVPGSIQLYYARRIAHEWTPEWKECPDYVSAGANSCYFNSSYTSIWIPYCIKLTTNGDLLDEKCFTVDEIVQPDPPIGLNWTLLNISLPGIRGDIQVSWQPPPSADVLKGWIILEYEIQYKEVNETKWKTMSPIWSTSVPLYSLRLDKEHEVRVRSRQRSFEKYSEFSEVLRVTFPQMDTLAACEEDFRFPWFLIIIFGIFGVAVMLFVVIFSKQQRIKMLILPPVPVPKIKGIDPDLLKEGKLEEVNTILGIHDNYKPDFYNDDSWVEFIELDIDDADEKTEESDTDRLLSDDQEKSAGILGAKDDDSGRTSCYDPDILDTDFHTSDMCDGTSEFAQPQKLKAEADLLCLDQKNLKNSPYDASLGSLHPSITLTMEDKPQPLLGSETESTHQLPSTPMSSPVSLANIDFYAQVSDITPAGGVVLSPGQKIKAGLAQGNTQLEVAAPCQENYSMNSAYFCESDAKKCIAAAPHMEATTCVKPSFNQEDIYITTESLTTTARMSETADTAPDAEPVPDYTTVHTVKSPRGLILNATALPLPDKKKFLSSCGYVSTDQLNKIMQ

T2: human growth hormone receptor on IM-9 cells (human, UniProt P10912 19-638)
T2 sequence (looked up): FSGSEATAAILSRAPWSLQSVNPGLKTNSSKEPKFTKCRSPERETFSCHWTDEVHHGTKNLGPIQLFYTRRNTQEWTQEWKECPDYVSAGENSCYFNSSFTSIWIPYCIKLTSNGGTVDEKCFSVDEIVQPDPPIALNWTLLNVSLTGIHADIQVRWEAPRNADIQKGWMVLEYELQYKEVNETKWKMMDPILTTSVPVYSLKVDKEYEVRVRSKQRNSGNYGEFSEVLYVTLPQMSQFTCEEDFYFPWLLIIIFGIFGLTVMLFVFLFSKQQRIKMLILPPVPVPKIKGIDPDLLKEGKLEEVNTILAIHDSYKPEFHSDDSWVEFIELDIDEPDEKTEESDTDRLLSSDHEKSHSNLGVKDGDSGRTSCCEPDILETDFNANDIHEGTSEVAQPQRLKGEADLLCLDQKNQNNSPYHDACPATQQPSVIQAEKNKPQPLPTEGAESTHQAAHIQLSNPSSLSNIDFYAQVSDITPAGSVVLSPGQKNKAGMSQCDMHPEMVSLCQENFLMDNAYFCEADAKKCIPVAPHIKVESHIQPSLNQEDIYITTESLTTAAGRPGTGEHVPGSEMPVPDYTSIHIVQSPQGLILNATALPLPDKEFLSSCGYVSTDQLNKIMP

T3: rat GHR ECD (L43R), soluble, C-terminal 6His (rat, UniProt P16310 47-256)
T3 construct: also called soluble GHR ECD; rat GHR (L43R) extra cellular domain; not shown: C-terminal 6His tag of pET20b
T3 sequence (looked up): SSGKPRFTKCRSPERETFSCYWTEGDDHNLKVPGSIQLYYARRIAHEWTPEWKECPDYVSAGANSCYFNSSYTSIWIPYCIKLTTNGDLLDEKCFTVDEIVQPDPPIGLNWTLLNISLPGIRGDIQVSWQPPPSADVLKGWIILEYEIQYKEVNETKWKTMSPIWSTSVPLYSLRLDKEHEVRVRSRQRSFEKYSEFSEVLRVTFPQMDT


What was measured:
[1] = target: T1, full length rat GHR (L43R) on BAF3 cells (clone 2E2-2B12-F4) (rat); test: cell-based or functional assay
[2] = target: human growth hormone receptor on IM-9 cells (human) (UniProt P10912); test: cell-based or functional assay
[3] = target: T2, human growth hormone receptor on IM-9 …; test: cell-based or functional assay
[4] = target: T3, rat GHR ECD (L43R), soluble, C-terminal …; test: Biacore SPR; rat GHR ECD (L43R) on CM5 chip, GH injected; bivalent analyte model
Method: Various concentrations of wild type or mutant GH (0.1-300 nM) in HBS-EP buffer (Biacore™, Pharmacia) were injected over the GHR surface at a flow rate of 40 μl/min for 4-5 minutes, and dissociation was monitored for 15 minutes post-injection. The surface was regenerated by a 15 second pulse of 4.5M MgCl₂. […] Reference cell with no receptor immobilized was used to subtract any buffer bulk effects and non-specific binding.
Kinetic binding data obtained from GH titration experiments was processed with BiaEvaluation 4.1 software (BIACORE™). […] Equilibrium dissociation constants (Kd) were calculated as ratios of individual rate constants (koff/kₒₙ).

hGH K145pAF-30KPEG, sequence (P01241 27-217 K171X): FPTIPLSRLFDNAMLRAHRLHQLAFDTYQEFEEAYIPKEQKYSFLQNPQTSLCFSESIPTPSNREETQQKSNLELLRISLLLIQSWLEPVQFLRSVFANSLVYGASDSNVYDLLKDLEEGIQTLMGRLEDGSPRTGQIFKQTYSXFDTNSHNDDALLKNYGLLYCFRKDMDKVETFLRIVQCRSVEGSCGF
hGH Y143pAF-30KPEG, sequence (P01241 27-217 Y169X): as the sequence (P01241 27-217 K171X) above, with Y143X, X145K counted along it
hGH G131pAF-30KPEG, sequence (P01241 27-217 G157X): as the sequence (P01241 27-217 K171X) above, with G131X, X145K counted along it
hGH Y35pAF-40KPEG, sequence (P01241 27-217 Y61X): as the sequence (P01241 27-217 K171X) above, with Y35X, X145K counted along it
hGH R134pAF-20KPEG, sequence (P01241 27-217 R160X): as the sequence (P01241 27-217 K171X) above, with R134X, X145K counted along it

Proliferation EC50 (BrdU, rat GHR (L43R) BAF3 cells) (nM as headed; WHO hGH expressed as unity) [1] | pSTAT5 EC50 (IM-9) (nM as headed; WHO hGH expressed as unity) [2] | EC50 (nM), STAT5 phosphorylation in IM-9 cells [3] [nM] | Kd [4] [nM] | koff [4] [s⁻¹] | kon [4] [M⁻¹ s⁻¹] | Molecule
6.6 | 12.3 |  |  |  |  | hGH Y143pAF-30KPEG (from UniProt P01241 27-217) (ligand)
24 | 53.3 |  |  |  |  | hGH Y35pAF-40KPEG (from UniProt P01241 27-217) (ligand)
 |  | > 200000 | 250 | 0.0083 | 33000 | rat GH WT (ligand, UniProt P01244 27-216, looked up, also called rat growth hormone) FPAMPLSSLFANAVLRAQHLHQLAADTYKEFERAYIPEGQRYSIQNAQAAFCFSETIPAPTGKEEAQQRTDMELLRFSLLLIQSWLGPVQFLSRIFTNSLMFGTSDRVYEKLKDLEEGIQALMQELEDGSPRIGQILKQTYDKFDANMRSDDALLKNYGLLSCFKKDLHKAETYLRVMKCRRFAESSCAF

Second part, the molecule before the results:

Molecule | Proliferation EC50 (BrdU, rat GHR (L43R) BAF3 cells) (nM as headed; WHO hGH expressed as unity) [1] | pSTAT5 EC50 (IM-9) (nM as headed; WHO hGH expressed as unity) [2] | EC50 (nM), STAT5 phosphorylation in IM-9 cells [3] [nM] | Kd [4] [nM] | koff [4] [s⁻¹] | kon [4] [M⁻¹ s⁻¹]
hGH K145pAF-30KPEG (from UniProt P01241 27-217) (ligand) | 5.3 | 20.6 |  |  |  | 
hGH G131pAF-30KPEG (from UniProt P01241 27-217) (ligand) | 4.6 | 23.8 |  |  |  | 
hGH R134pAF-20KPEG (from UniProt P01241 27-217) (ligand) |  | 5.3 |  |  |  | 

Reference: patent publication US20060189529A1 (AMBRX, published 2006)
